The text below walks through data of the nanobody polyreactivity screen of Harvey et al. (2022).

This data set in a line: yeast display, Sf9 membrane polyspecificity reagent, FACS + sequencing; frameworks hold sequencing errors. An outline of the steps:
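In a synthetic yeast display library (Saccharomyces cerevisiae BJ5465), nanobody expression was induced with galactose for 36–48 hours. FACS gates were set low and high (top ~1%) using anti-HA fluorescence for expression and streptavidin fluorescence for binding of the Sf9 membrane reagent. Each polyreactivity label is drawn from the gate of origin.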
In the case of “QVQLVESGGGLVQAGGSLRLSCAASGYTYRWYAMGWYRQAPGKEREMVAAINRNGGSTFYADSVKGRFTISRDNAKNSVYLQMNSLKPEDTAVYFCAARYSSLPRYLTDGLDYWGQGTQVTVSS”, the “polyreactivity (PSR sort gate)” value is listed as “high polyreactivity”.

With “QVQLVESGGGLVQAGGSLRLSCAASHANAIGWYRQAPGKERELVAAITYRGGSTYYADSVKGRFTISRDNAKNTVYLQMNSLKPEDTAVYYCNTDVYLYVYDFGYNYWGQGTQVTVSS”, the “polyreactivity (PSR sort gate)” value was “low polyreactivity”. The result for “QVQLVESGGGLVQAGGSLRLSCAASLRIFYSNAMGWSRQAPGKERELVAAISSSGGITYYADSVKGRFTISRDNAKNTVYLQMNSLKPEDTAVYYCAVDSRHYIRAFDHWGQGTQVTVSS” reads “low polyreactivity”; that for “QVQLVESGGGLVQAGGSLRLSCAASLSIFYVNAMGWYRQAPGKESELVAAISFSGGTTYYADSVKGRFTISRDNAKNTVYLQMNSLKPEDTAVYYCNTPSSREMDYWGQGTQVTVSS”, “low polyreactivity”. The result for “QVQLVESGGGLVQAGGSLRLSCAASMGWYRQAPGKERELVAAITTRTGTTYYADSVKGRFTISRDNAKNTVYLQMNSLKPEDTAVYYCSKRGYYRYYYWGQGTQVTVSS” reads “high polyreactivity”. The result for “QVQLVESGGGLVQAGGSLRLSCAASPNIFHTYGMGWYRQAPWKERELVAAITSDGGTYYADSVKGRFTISRDNAKNTVYLQMNSLNPEDSAVYYCAAYTYYYAIHAYWGQGSQVTVSS” reads “low polyreactivity”. For the sequence “QVQLVESGGGLVQAGGSLRLSCAASRIFRGYAMGWYRQAPGKERELVAAIRRGGSTNYADSVKGRFTISRDNAKNTVYLQMNCLKPEVTAVYYCNAYLYLPRYDYWGQGTQVTVSS”, the “polyreactivity (PSR sort gate)” value is listed as “high polyreactivity”. For the sequence “QVQLVESGGGLVQAGGSLRLSCAASRITLNRNAMGWYRQAPGKERELVARISRRGGTTYYADSVKGRFTISRDNENNTVYLQMNSLKPEDTAVYYFNAGPYGGNPFDYWGQGPQVTVSS”, the “polyreactivity (PSR sort gate)” value was “high polyreactivity”. The result for “QVQLVESGGGLVQAGGSLRLSCAASRITSYGYAMGWYRQAPGKERELVAAISRSGGTTYYADSVKGRFTISRDNAKNTVYVQMNILKPEDTAVYYCAVGKSHRGGGVTKFNYWGQGTQVTVSS” reads “low polyreactivity”; that for “QVQLVESGGGLVQAGGSLRLSCAASRLIFRGNDMGWYRQAPGKERELLAGINSSGSTNYADSVKGRFTISRDNAKNTVYLHMNSLKPEDTAVYYCAARAIVSFDYWGQGTQVTVSS”, “low polyreactivity”; that for “QVQLVESGGGLVQAGGSLRLSCAASRLTFNTYTIGWYRQAPGKERELVAGRSKSGGRTYYADSVKGRFTISRDNAKITVYLQMNILKAEDTSVYYCSTRSTTDFYWGHGTQVTVSS”, “high polyreactivity”. The result for “QVQLVESGGGLVQAGGSLRLSCAASRRIFASNAMGWNSQAPGKERELVAAITSSGGSTYYADSVKGRFTISLDNAKNTVYLQMNSLKPEDTAVYYCNAGDYYYRLVTAKPSSYDYWGQGTQVTVSS” reads “high polyreactivity”. As for “QVQLVESGGGLVQAGGSLRLSCAASRRIFSRYAMGWYRQAPGKERELVAAITGRGGSTYYADSVKGRFTISRDNAKNTVYLQMNSLKPEDTAVYYCAADVPPRRNFVKYYYWGQGTQVTVSS”, the “polyreactivity (PSR sort gate)” value is “high polyreactivity”.

For “QVQLVESGGGLVQAGGSLRLSCAASRRTFIANAMGWYRQAPGNGREWVAVITLNGGSTYYADSVKRRFTLSRDNAKNTVYLQMNSLKPEDTAVYYCAADVYWDYYWGQGTQVTVSS”, the “polyreactivity (PSR sort gate)” value is “low polyreactivity”. The result for “QVQLVESGGGLVQAGGSLRLSCAASRRTFYYAMGWYRQAPWKERYADSVKGRFTISRDNAKNTVYLQMNSLKPVDTAVYYCAAKVPEPPSLDESDYWGQGTQVTVSS” reads “low polyreactivity”; that for “QVQLVESGGGLVQAGGSLRLSCAASRRTYKYNAMGWYRQAPGKEREVVAAISRSGGSTYYADSVKGRFTISRDNAKNTVYLQMNILKPEDTAVYDCAVSYRPGGYRRHFRYVYWGQGTQVTVSS”, “high polyreactivity”; that for “QVQLVESGGGLVQAGGSLRLSCAASRSIFGIYTMGWSRQEPGKERELVAAIKSGGSTNYADSVKGRFTITRDNAKNTVYLQMNSKKPEDTAVYYCNAYIHPPGPRVYSREYDYWGQGTQVTVSS”, “low polyreactivity”.
